Measured values taken from PMC10170298, “Differential regulation of ATP hydrolysis of RIG-I-like receptors by transactivation response RNA-binding protein”.

Target: T1, TRBP WT (nonphosphorylated) (UniProt Q15633 1-366)
T1 sequence: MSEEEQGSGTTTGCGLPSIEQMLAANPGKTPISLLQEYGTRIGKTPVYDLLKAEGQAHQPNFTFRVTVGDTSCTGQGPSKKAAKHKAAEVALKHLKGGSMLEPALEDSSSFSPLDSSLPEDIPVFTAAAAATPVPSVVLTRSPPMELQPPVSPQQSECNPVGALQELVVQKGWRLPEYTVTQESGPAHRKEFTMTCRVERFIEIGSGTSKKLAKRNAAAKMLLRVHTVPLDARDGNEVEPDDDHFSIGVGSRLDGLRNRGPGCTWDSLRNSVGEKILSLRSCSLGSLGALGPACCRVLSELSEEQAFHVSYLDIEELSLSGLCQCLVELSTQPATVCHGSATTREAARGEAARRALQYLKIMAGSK
Experiment: EMSA; 20 mM HEPES pH 7.5, 150 mM NaCl, 1.5 mM MgCl2, 2 mM DTT, 30 C, 30 min; dsRNA 60 nM, TRBP 0-400 pmol; 5% acrylamide gel
Settings: protein: recombinant; label: none (SYBR Gold stain); blunt

B1: TMEV 45-mer dsRNA (dsRNA)
RNA 1: UUACUAUUGACACUAUGGCUUGCAAACAUGGAUACCCAGAUGUGU
RNA 2: ACACAUCUGGGUAUCCAUGUUUGCAAGCCAUAGUGUCAAUAGUAA
B1: binds.
